Read-outs that look alike come from different tables or passages of the source.
Legend:
[1] = target: HIV-1 Gag matrix domain (MA) (HIV-1); assay: crystal structure; MA co-crystallised with IP6; three crystal forms: cryogenic MA_IP6_R32 (2.40 Å), cryogenic MA_IP6_C2 (2.72 Å, six chains in the asymmetric unit), ambient-temperature SFX MA_IP6_SFX_P1 (3.5 Å); PEG 3350 or PEG 4000/2-propanol, 100 mM MES pH 6.0-6.5
[2] = target: HIV-1 Gag matrix domain (MA) (HIV-1); assay: as above; remark: listed apart in the source

“HIV-1 Gag matrix domain (MA) (domain or fragment)” showed a stoichiometry N [1] of 6 and a stoichiometry N [2] of 3.
